The text below walks through data of patent US20050013808A1, “Nitroreductase enzymes” (priority 2001, published 2005).

Assay [1] relates to UT5600 cells (NTR−) lysogens. The assay is described as follows: Replica-plate screening of mutant NTR-expressing lysogens on increasing CB1954 (growth score). Particulars: growth of lysogens on agar with kanamycin, IPTG and 0-400 μM CB1954; wild type = 4, higher = more sensitive. Format: cell-based, E. coli. More on the design: key to Score: 0: Good growth on all concentrations of CB 1954 = vector; Good growth on 100 and 200, faint on 300, ring of growth on 400 μM; Good growth on 100 and 200, ring growth on 300, none or very faint on 400 μM; Good growth on 100, faint to good on 200, none or very faint on 300 and 400 μM; 4: Good growth on 100 μM, none to ring growth on 200 μM = wild type; Good growth on 50 μM, ring on 100 μM, none on 200, 300 or 400 μM; 6: Faint growth on 50 μM, ring on 100 μM; 7: Good growth on 50 μM, none on 100 μM; 8: Ring growth on 50 μM, none on 100 μM; 9: None or very faint growth on 50 μM, none on 100 μM; 10: None or ring growth on 35 μM. Here is the method: The ligation mix was packaged (Stratagene) into lambda bacteriophage particles that were used to infect UT5600 cells (NTR ^−). As a control wild type NTR was also cloned into this vector (JG16C2). Kanamycin resistant lysogens were selected on agar plates ([…] kanamycin) then individually grown overnight in a well of a 96-well plate in LB+Kanamycin. The clones were replica plated on to a series of plates containing Tris-buffered (50 mM, pH 7.5) LB agar with kanamycin, IPTG (0.1 mM) and CB1954 at a concentration of 0, 25, 35, 50, 100, 200, 300 or 400 μM (see FIG. 3). […]

Assay [2] relates to UT5600 cells (NTR−) lysogens. The experiment in a line: Survival curve (colony count) IC50 of CB1954 in NTR-expressing lysogens. Format: cell-based, E. coli. To be noted: concentration of CB1954 giving 50% reduction in colony number after 36h growth; lysogen expressing the named NTR. Here is the method: To quantify the improvement in NTR activity in the clones in a less subjective way, a few clones were selected for further study by determining their survival curves. The lysogens were grown overnight in LB +kanamycin and diluted to approximately 1 cell per μl based on the OD. In duplicate, 100 μl diluted cells were plated into Tris-buffered LB plates containing kanamycin, IPTG and 0-400 μM CB1954. After 36h growth the number of colonies on each plate were counted and expressed as a percentage of the number present on the plates with no CB1954. Survival curves showing % survival versus concentration of CB 1954 were plotted (see examples in FIG. 7) and the IC50 determined as the concentration of CB 1954 which kills gives a 50% reduction in colony number (Table 3 and FIG. 8). A few clones containing mutations resulting in an enhanced sensitivity to CB 1954 were selected for further study.

Numbering of substitutions follows the chain as printed. Numbers in names are those of the source. Where “and” joins values, the source holds several entries; their conditions need not be identical. Equal values may be shown once.

B1: Y68W (protein)
chain: MDIISVALKRHSTKAFDASKKLTPEQAEQIKTLLQYSPSSTNSQPWHFIVASTEEGKARVAKSAAGNWVFNERKMLDASHVVVFCAKTAMDDVWLKLVVDQEDADGRFATPEAKAANDKGRKFFADMHRKDLHDDAEWMAKQVYLNVGNFLLGVAALGLDAVPIEGFDAAILDAEFGLKEKGYTSLVVVPVGHHSVEDFNATLPKSRLPQNITLTEV
On to B1, for which the Score in assay [1] is recorded as 4-5. In assay [2], this molecule registered a half-inhibitory concentration (IC50) of 108 µM.

B2: S40T (protein)
chain: B1 chain with S40T, W68Y
In turn, B2 gave a Score in assay [1] of 5. In assay [2], the IC50 stood at 102 µM.

B3: S40G (protein)
chain: B1 chain with S40G, W68Y
Turning to B3, in assay [1], the Score was determined as 5. For the same molecule, in assay [2], it took 90 µM to reach half-maximal inhibition (IC50).

B4: G120A (protein)
chain: B1 chain with W68Y, G120A
Consider B4, for which the Score in assay [1] is 4-5. In assay [2], this molecule registered an IC50 of 160 µM.

B5: G120S (protein)
chain: B1 chain with W68Y, G120S
For the molecule B5, the Score in assay [1] is 4-6. The same molecule gave an IC50 in assay [2] of 125 µM.

B6: Y68G F124Q (protein)
chain: B1 chain with W68G, F124Q
For B6, in assay [1], the Score is reported as 4. Moreover, in assay [2], the 50% inhibitory concentration (IC50) was 143 µM.

B7: N71S (protein)
chain: B1 chain with W68Y, N71S
The molecule B7 registered a Score in assay [1] of 7. Further, the 50% inhibitory concentration (IC50) in assay [2] is 55 µM.

B8: T41G (protein)
chain: B1 chain with T41G, W68Y
B8: the Score in assay [1] is 5-7. The molecule also registered a half-inhibitory concentration (IC50) in assay [2] of 120 µM.

B9: N71D (protein)
chain: B1 chain with W68Y, N71D
For the molecule B9, the Score in assay [1] was found to be 5. Besides, in assay [2], the half-inhibitory concentration (IC50) worked out at 110 µM.

B10: Y68G F124W (protein)
chain: B1 chain with W68G, F124W
With B10, the Score in assay [1] is 5-7. In addition, the IC50 in assay [2] stood at 69 µM.

B11: S40A (protein)
chain: B1 chain with S40A, W68Y
With B11, the Score in assay [1] was 5-7. In assay [2], the IC50 was 100 µM and 84 µM.

What is called IC50 is the concentration at which inhibition is half-maximal.
